19 sequences from a protein production outcome set (Wang et al. 2014) can be followed below.

The data set in a line: label from the status in PepcDB records.
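Further: failed if final PepcDB status was selected cloned or expressed and not failed if soluble or beyond.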

In the case of “MIILSFYKLLERVICVHSITTYWWKYYLASFFSILVIGIVISSLNINIPYFFLIQIGLVFSLWYLISPIIMILVFKMRRAPQDVTFMVEDLSKKYNVKLSKVYIINDNFLNAFAFGNIIFRGIAVTSPLYESLVQEELAAVLSHEIAHIKNYDPEVMLLTIFSINSIYAALIYYLPLVSLFFLIIYFVILLPSVFYVHRKIEKRADLTAVKVNPDITYWLESSLIKIGYLSRSIPTNMLRYVPPIQIFLAKEFIVNHIVDEKSVLSFRTHPSLKERLLYLSQYEKQKMYYI”, the protein production entry is “failed”.

Turning to “MIIMLSEYLEEFKEYLERFKNIDINFSDVLKMSKKFIIWRLKQIFGDSSTIFTNISSEITIFDKIFQMIDYDIDGEVEKRLPKDESRFMIGVRREKEIEIKKEIITNLLDFLLIILLSHTPYFNAFVRKYAEIKKIKVIKKLPNKISVWEFIKIASRSRINDLHLERLDLENGFVDITKIKEIFAKEIIRVELMKLGENIKKRKLPDDSVVKELLNEISDYLKDKVKYEQISGIKALNYKGNIPLEWHPPCIRGILNDILSGGSPSHYARRSFVVYWFCAKFNPNLRPLDKNGNLVNVSATDIASEEEIERFIDELIEMLFKNVEDFDEKKTRYYIMHNIGYKVGHGRLTHCEYCKNWQDDGGKGLSYYCKPDELCKKKFIIHPLDYLCYNINKHLKKERFKKIKKEDKNGDNKLEHHHHHH”, the protein production result is “not failed”.

In the case of “MIIMVTEVDVLVIGAGPAGSTAAKHAALGGADVLLIDKKSEIGAPKRCAEGVSIGGLESLGIEPNPRWITKKLDGVRMVSPNGTDVWLTSDKVELPEAGYILERKVFDKFMAMDAARAGSRIMVKTIATGMERTDDGYLVSAECMGEKFEIKARIVIAADGPESRVARWAGLNTATRPKDMESAAQFEMVGVEMEDNNCIEFYFGSVAPGGYALDIPEGDDIANVGLGVLSTETDKSAYEHLLEFVESCPATRNAQPVELNIGGDPVGGMPKKLVADSLMVVGDAAGQVNPLTGGGIISGMKGGMLAGQVAAAAVSEGDVTARRLGEYERLCREEIGDEISKYLKVKEYLLTLSDSELDSIAEAFQDVEFEKVSTTELVKKLIKVSPKALLKLGKLFLEHHHHHH”, the protein production entry is on record as “failed”.

As for “MIIPDLFRLNDWSTRRFNLFIWSILVAYDFSFISNVPLYSIEILSKILGFVILTFIPGYIILRIFKVHDIDRVVTLLLAIGLSLSFIMIFGFTVNMFLPYIGVSKPISTFPLFYSLNISILVLMIIYYFRDKKFNSSQNQLRITFSPMLFYFILLPLFSILGTESVNHYNFNMPVLILLFVISLSPILIALDRISRDLYPFMILSISLAILYNMNLISTHLWSYDIFYEAHTSKYVLENGIWNPGNKTMVPLLLFTILSPVYSLICDLNVIWVFKIIFPFFFSLTPLALYYVYKELDFGNYKIDSEIAMLSVFVFIFFYGFYKDMPDKQHIAELFLALILILSIFNTQKRILLFIFSFSLVVSHYGISYFFVFSLIFVSMMSRFRVNADTSFLTPTYTLLFSVLTFSWYIYISAGDVFEVITQVGYHFLSGIKDIFQANNDGRSASAYLSYLSNGILWVIYMLIHLILQFFIFIGVLNLLLSIMHNKTKSFEIALLTIIFYAFLFVQFFKTYGMGLDRILQITLILLSPLSIWGYSFCVKNLNSVYARIISKRIYRNKENGNLNLIFESTLTRNEAINKNHITNLSKKARLCFSIFLMIFFVFNSGFIFWMTGYPLPGYCININPNSGWPVYSESEICGVDWLKSHENEHNRIAVFNQWDTIKSRDGLLVAENFYSKDLIPIQTNTTTLYNSYLFLGKYSVDKVEDGEEDVDLQDTLFYNSTLKNSNKIYNSEKSHLYLAE”, the protein production result is “failed”.

As to “MIIPMNNKHPLPTPLVSIIIPVYNVEKYLYRCVKSILSQDYYDYEIILVDDGSTDGSGMICDELTEQHGHISVIHKPNGGQGSARNAGLNHAKGKYIWFIDSDDYISPHSLSVIMSQITQGDFDALFFPYIKSNGNILIGEAVGKYHAGVYRGQQLLLEGLVNMSMCTIVSLRSRWIDNRIFFREDIHFEDFEINPRVLKFLERAIFLDSNIIPYIYYTRLGSTMNQLDPQKRMRQTEDFLRIEKSWKEWFNLDSPEPNSYDMLMLRTGTNMLHRNLLNFVRNSNFSISTKLKLYAQYRKKGVFSWFYNGYRRDPYVGCTSVRVFWNTIGRSYILFSLFSIVEEIWKKIRK”, the protein production entry is on record as “failed”.

As for “MIIRIKHYGEVKIEDSKNLLLNLIENRIGIDNICNGKGTCGKCKVRFRQGVPEATSADLRYLSVEELEEGVRLACQVKPQKGMEIDVTLSNSFDRKNTVLRRDDQVALDSGLSGISLTIPQPSLEDERGDWDRIIDEYRKVMPEQGLALPSLGVLERLPGTLRKLDYRITAVTWQNRVIDVQPGHDTALHGLAVDIGTTSVAVALIDLKTGEVLGSVSAENGQTAFGGDVISRIAYAGEGLKNRLQLTAAVRSTINTLIDELVLQHEIVRNSIYKMTIVANTTMSHLFLGLDVSNLAVSPYVSVYNQALEFSAKELGLGSNPEAVVQILPNIGSFVGGDTVGALLGAPEVLTQGNHLLLDLGTNCELVLKTEKMMLACSTAAGPAFEGAGIFHGMRAKPGAIEGIRIHEEGVELRVIGDEEALGICGSGLIDGIAQMRQAGIINRKGAFVDPDHKDCSLSDELKSRIRKKEDYWEFVFAFGRQHKKDISLGQRDIEALQLAKGAVCAGIKTLVSLAGISLRDLDSIVMAGTFATYLKKESILSIGLTPHTDPEKIKMAGNAAHLGAIRTLLNQGTFAEGAELARRIQHIELGGDKTFTNFFMRSMYLEPTD”, the protein production result was “failed”.

With “MIIRPIIKNDDQAVAQLIRQSLRAYDLDKPDTAYSDPHLDHLTSYYEKIEKSGFFVIEERDEIIGCGGFGPLKNLIAEMQKVYIAERFRGKGLATDLVKMIEVEARKIGYRQLYLETASTLSRATAVYKHMGYCALSQPIANDQGHTAMDIWMIKDL”, the protein production entry is reported as “failed”.

For “MIISFVIQVGLFPDSLERKVIRHIENGDHLTCFLFLNYLHVLIQGFSFGGYRVLYKERELSRICPAIRFQRKSFTEVRMILSHHPSFSLVNDPQEIAQIAEWGEEQIAQYKERVTGEGKQRDIDRGKPMAQASLDEAAFLLNLASLEGTWDESLERVAQCYKEAGLNDIAKFVLYRD”, the protein production result is reported as “failed”.

For the sequence “MIITIPIKNQKDIGTPSDSVVVLGYFDGIHKGHQELFRVANKAARKDLLPIVVMTFNESPKIALEPYHPDLFLHILNPAERERKLKREGVEELYLLDFSSQFASLTAQEFFATYIKAMNAKIIVAGFDYTFGSDKKTAEDLKNYFDGEVIIVPPVEDEKGKISSTRIRQAILDGNVKEAGKLLGAPLPSRGMVVHGNARGRTIGYPTANLVLLDRTYMPADGVYVVDVEIQRQKYRAMASVGKNVTFDGEEARFEVNIFDFNQDIYGETVMVYWLDRIRDMTKFDSVDQLVDQLKADEEVTRNWS”, the protein production entry was “not failed”.

“MIIWSGWGFLVAIIVIINTLLGKAIFGSITGDATYFQDHSWPMAVMFIISGVMSWYLGKYINKPDGKVYIDAETGEKVMFNKKHSLFFIKMEYWGPILGVIAIVTLITR”: the protein production entry is “failed”.

Take “MIKFYQYKNCTTCKKAAKFLDEYGVSYEPIDIVQHTPTINEFKTIIANTGVEINKLFNTHGAKYRELDLKNKLQTLSDDEKLELLSSDGMLVKRPLAVMGDKITLGFKEDQYKETW”: the protein production entry was “not failed”.

Turning to “MIKGGGGKSSGYSADLMVCFPSRAHLSLPSKSISSPSSSFNRRQNAPHHRRSISKLSSSGGGVRQNRGGGREVVEEPTSPKVTCAGQIKVRSSKRDGGGKNWQSLMAEIEKIHRSKSESKFFGIKRDVMGFLTCLRDFDFRCFGAFPPVDIISDDEEEDEEEEEEDEEEDEDESSGTVFSKWLMVLHEKQNNEECVDGKENVFSDVETAVPPPNALLLMRCRSAPVKNWSEEKKEETEEGDNRVKQSGEEEEEEKDRVGNKKDLRSLMEEEKKMNLVVMNYDTNYYKLSNDIAKETWVVGGIQDPLFRSRSWKK”, the protein production result is given as “failed”.

As for “MIKIAVIAGGSFDCLPEPADLYVGVDAGSLRLLDHSLPLDWAIGDFDSVTSEELGQIREMAEQFLQAPAEKDDTDLELALKEIFKAYPQAQVRIYGALGGRMDHMMSNLFLVAEPDLAAYMEQIELVDSQNVVRFRPAGSHRISPIAGMKYISFMPSDQSHLTIRYAKYPLDASNYFFKKCYASNEFIDRDIDIQLDQGYVVLIYSKDKD”, the protein production result is given as “failed”.

On to “MIKKFKNYDQIIKELFVIAIPTAFESLLFQMVTFFDNFMISYLGSFHVTGVSLANRVTFLFFIIVFGLGTALSAYVSQAIAKKKFLQVRQSFAYILLIGTTIGIIFFIFSFLFPRNIIKLFTANQDSLNFGSEYLKIISLSYVLMAYSFLSAMGFKSAKEVKIPLYVTSIVVLINIVFNYILIFGFSMGIKGAAYATVLARIVEFVFYFLYSLISSNSYYRIKFGDFFAPKVVTRANLKLIIPVLSHEIFWVLSITILHAFYARVGSIEYASFAVASNLFDICFVLLHGMGLATGVVIGHLMIYDKKHVRSVGFFLSFLGFLLGIFVVILLIGISSFAPYIFSKLDSPELVSVFIYVFASIVIFKAFTAQVLVGVFRASGIPNVCFFIESGVIVFYTLPVAYLLVFYTNLSLPIVVFIVNLEEIIKNIFIIIEFFHDDWIREIEYEELA”, for which the protein production result is “failed”.

With “MIKLKNDRLEVEIDNMGAQLTHVIGNESGYDYIWNGDAWKKHAPILFPAIGKSNNDEYVVDGKTYRMPQHGFARDFDWQKVNQAENRVMLELKSNAKTKEMFPFDFTLQVEYKLDQNQLLIGYRVINNDQRMMPYALGSHPAFNLPIDDDGVFEDYRLTFGPKQKQIKRLGVGPIPFRDGTEAPYPSIQASELALNHEMFDDGLIILNAKKLENVTLHSNQTAHEVKLNIKQFPYLTLWAMEHETQPFICIEPFAGLPDQASDQPTDWNNKKGNNLLEAGESHTFEYGIEFK”, the protein production entry was “failed”.

Consider “MIKLNRDQKLTYKFLIIPIALLILSFNPYTESLEFSLPAVYMASHYAVYFSGLYIGYKYFKGGYISLILGLIPAVLWHSPYFFSLGAAMLDYRILLEITLLFGGVLLGSSINSMRLQIKITLLALWMLGDSILAILFITSTPLYSNLAYPFSPYTPSSLPLAGILMFVIMNVFLIYVISKFMKSIIG”, for which the protein production result is “failed”.

For the sequence “MIKRLKVNVIDLSSLVYLIFAVIPLFTFDLKGPYWMYVIIFIIFTISYTALAIFTEVLSTKMIYTFLILHYIGITYLVYSVGPATSLFFFFSSFILPYVLKVKMKSIAFLIFIVVMLINFILIYVADPLSLGFIAVMHIAILLITVGNFKQSETIKMKNALEEKNKHINVLIAEQERNRIGQDLHDTLGHVFASSSIKSELAIKLIDSDSEKAKLQMIEVNNISKESLNKVRSIVNDLKIQSFEEEVASMETLLKNANLNFEFFNAELAKGISPAKQAILAMILREAINNVLKHAHATSVTGSLTETQNDITLTIIDNGIGMDDLKEHDLKSIKERVALMNGSIEIQSNHGLCISIKISRGDA”, the protein production entry was “failed”.

With “MIKRLTISPLFLILSLIAYYLSRNDILLYSTLSTILFWTFIILILPTSFYNYIKDGIVKYCKKKIFWFTVGLYISYHVILYSFFFYLLLPGSIKNISFWFSFNAGIGYSIPPPITYFLEWVSNSPAIWFFIGPYEGDVIPFSTFLGVVLALLIGLNVMKILELWGISNKLSKSIVLIPSLGVVSGSSCCVFLPSIVMYSIALSISSITATILSILSSFAYFILAYYALPIVSAIVLFHNLTMLNRLIKKLSFTM”, the protein production result is given as “failed”.

Take “MIKSSSKIGLAFFVRPQFDVDLAKNFFNKVQDSLKEAGIATQVFELPVSTDAEALSLAESVNSHQDLHGLIVVQGTFCDASLILNLASNINLPIMIWATKEQPTGGRLSLNSFCGLNLGAHTLVNAGIKFKGVYGSPGSPAVIKKVTSFARAAGAVKWLKGKRIGLFGHRPSGYYPSNFNEILLRKQFGITVEYLSLSEVFSLAQKMEIKDIQPFINTLVGVEGLEMVSTSKSVQAYLALKELIAQKALDAVAVECWPEFMAGFGGAVCYALSRLNDEGIVAACEADVNGAVTMLLGSYLSSQANFIADLVGAEEEQNQLIFWHCGNGPLSLAAPGTNPVAGVHPNRKTPLAMYFPLKGGPVTVSRLSSDHNGNLRLFLGSGTGIETDLLYSGNSLPIQISGSVEETLDTILCEGIEHHYIVTYGDLTSEFREIAELLGLRMITFLEHHHHHH”: the protein production entry is reported as “failed”.
